Values belong to the substance of their own block, whether it stands above or below them.
Target: Δ258-UNC-23, stable fragment of UNC-23, fluorescently labelled (C. elegans)
Sequence (main, as listed by the source mutant): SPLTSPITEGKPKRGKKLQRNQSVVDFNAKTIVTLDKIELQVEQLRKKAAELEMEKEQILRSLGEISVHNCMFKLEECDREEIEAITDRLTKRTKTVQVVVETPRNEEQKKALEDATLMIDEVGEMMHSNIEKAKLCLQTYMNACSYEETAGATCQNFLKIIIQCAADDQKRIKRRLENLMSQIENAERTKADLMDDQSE

Chain of wild type Hsc70 (nematode Hsc70, HSP-1) (P09446 whole entry): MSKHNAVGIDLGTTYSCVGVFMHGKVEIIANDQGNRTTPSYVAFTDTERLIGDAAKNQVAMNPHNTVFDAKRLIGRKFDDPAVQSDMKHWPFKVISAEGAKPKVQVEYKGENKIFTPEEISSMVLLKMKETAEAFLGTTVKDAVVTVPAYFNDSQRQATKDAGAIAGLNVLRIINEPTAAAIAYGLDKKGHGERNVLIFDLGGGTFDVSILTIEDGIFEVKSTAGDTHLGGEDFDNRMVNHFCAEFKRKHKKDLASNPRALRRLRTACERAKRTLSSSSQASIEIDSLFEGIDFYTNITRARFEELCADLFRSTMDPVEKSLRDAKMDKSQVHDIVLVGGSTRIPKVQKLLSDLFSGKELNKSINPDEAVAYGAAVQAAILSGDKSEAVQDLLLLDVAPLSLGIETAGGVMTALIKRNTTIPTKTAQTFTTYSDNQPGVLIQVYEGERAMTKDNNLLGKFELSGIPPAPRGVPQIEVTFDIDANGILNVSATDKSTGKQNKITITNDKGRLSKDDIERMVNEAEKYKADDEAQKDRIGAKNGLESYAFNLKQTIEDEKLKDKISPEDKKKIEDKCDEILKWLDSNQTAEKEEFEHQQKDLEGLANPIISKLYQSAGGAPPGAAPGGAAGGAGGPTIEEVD

- ATPase stimulation (stimulated minus unstimulated turnover), 3 µM Hsc70 D384N with 3 µM UNC-23: 0.24 min⁻¹
Substance: Hsc70 D384N (from UniProt P09446 1-640) (natural protein)

- ATPase stimulation (stimulated minus unstimulated turnover), 3 µM Hsc70 D233N with 3 µM UNC-23: 0.12 min⁻¹
Substance: Hsc70 D233N (from UniProt P09446 1-640) (natural protein)

- ATPase stimulation (stimulated minus unstimulated turnover), 3 µM Hsc70 A379V with 3 µM UNC-23: 0.02 min⁻¹
Substance: Hsc70 A379V (from UniProt P09446 1-640) (natural protein)

- ATPase stimulation (stimulated minus unstimulated turnover), 3 µM Hsc70 with 3 µM UNC-23: 0.18 min⁻¹
Substance: wild type Hsc70 (nematode Hsc70, HSP-1) (from UniProt P09446 1-640) (natural protein)
